Target: the molecule itself
Experiment: cryo-EM structure; GLIC in MSP1E3D1 lipid nanodiscs (asolectin at pH 7.5; DOPE:POPS:POPC 2:1:1 at pH 7.5, 5.5, 4.0 and 2.5), 150 mM NaCl, 1 mM EDTA; seven maps at 2.6-3.4 Å; homopentamer

B1: GLIC, proton-activated prokaryotic ligand-gated ion channel from Gloeobacter violaceus (natural protein)
chain: QDMVSPPPPIADEPLTVNTGIYLIECYSLDDKAETFKVNAFLSLSWKDRRLAFDPVRSGVRVKTYEPEAIWIPEIRFVNVENARDADVVDISVSPDGTVQYLERFSARVLSPLDFRRYPFDSQTLHIYLIVRSVDTRNIVLAVDLEKVGKNDDVFLTGWDIESFTAVVKPANFALEDRLESKLDYQLRISRQYFSYIPNIILPMLFILFISWTAFWSTSYEANVTLVVSTLIAHIAFNILVETNLPKTPYMTYTGAIIFMIYLFYFVAVIEVTVQHYLKVESQPARAASITRASRIAFPVVFLLANIILAFLFFGF
notes: GLIC, Gloeobacter violaceus ligand-gated ion channel; expressed as a GLIC-MBP fusion from pET26, MBP removed with HRV-3C protease; Homopentamer; also called GLIC_(aso-pH7.5); GLIC_(pH7.5); source: E. coli C41, purified (DDM, amylose resin, SEC), reconstituted in lipid nanodiscs with MSP1E3D1
Q: B1 was tested. Which “stoichiometry N” value did it give?
A: 5
